# Target: human neonatal Fc receptor (FcRn), His-tagged (human) (UniProt P55899)
# Test: BLI
# Sequence of UniProt P55899 (P55899 24-297, chain 1 of 2): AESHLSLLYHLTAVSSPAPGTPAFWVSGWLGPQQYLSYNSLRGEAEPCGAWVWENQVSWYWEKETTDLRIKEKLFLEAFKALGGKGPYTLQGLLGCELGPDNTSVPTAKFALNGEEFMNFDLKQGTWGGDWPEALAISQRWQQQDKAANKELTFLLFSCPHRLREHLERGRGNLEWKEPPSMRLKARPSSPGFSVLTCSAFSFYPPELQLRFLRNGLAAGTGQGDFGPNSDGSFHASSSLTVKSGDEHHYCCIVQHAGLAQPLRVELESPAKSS
# Sequence of UniProt P55899 (P61769 21-119, chain 2 of 2, further chain): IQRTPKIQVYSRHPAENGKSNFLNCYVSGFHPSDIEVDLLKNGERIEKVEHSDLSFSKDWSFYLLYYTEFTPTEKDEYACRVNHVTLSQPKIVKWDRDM
row,Substance,Kd
1,"EU Prolia^® (denosumab reference drug product, EU-licensed) (antibody)",17.7 to 38.5 nM
2,"EU Xgeva^® (denosumab reference drug product, EU-licensed) (antibody)",14.7 to 36.2 nM
3,RGB-14-P (Gedeon Richter's proposed denosumab biosimilar to Prolia^®) (antibody),17.2 to 30.1 nM
4,RGB-14-X (Gedeon Richter's proposed denosumab biosimilar to Xgeva^®) (antibody),21.6 to 27.2 nM
5,"US Prolia^® (denosumab reference drug product, US-licensed) (antibody)",19.7 to 29.2 nM
6,"US Xgeva^® (denosumab reference drug product, US-licensed) (antibody)",18.1 to 33.5 nM

# Target: FcγRIIIa/CD16a 158V, His-tagged (human)
# Sequence (P08637 17-208): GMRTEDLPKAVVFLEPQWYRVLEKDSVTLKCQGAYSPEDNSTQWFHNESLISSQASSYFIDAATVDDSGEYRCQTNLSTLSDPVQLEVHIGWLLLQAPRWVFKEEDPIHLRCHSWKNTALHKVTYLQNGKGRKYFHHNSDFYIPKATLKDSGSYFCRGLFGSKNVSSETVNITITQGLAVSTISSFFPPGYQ
# Test: BLI
row,Substance,Kd
1,denosumab (as such; mean over the products) (antibody),15000 nM
